Where a chain is given by its changes, count along the chain named. In names and notes the source's numbering stands.
B1: SsoPox W263I: SEQ ID NO: 3 with substitution of tryptophan W in position 263 by isoleucine I (protein, listed as Sulfolobus solfataricus)
chain: MRIPLVGKDSIESKDIGFTLIHEHLRVFSEAVRQQWPHLYNEDEEFRNAVNEVKRAMQFGVKTIVDPTVMGLGRDIRFMEKVVKATGINLVAGTGIYIYIDLPFYFLNRSIDEIADLFIHDIKEGIQGTLNKAGFVKIAADEPGITKDVEKVIRAAAIANKETKVPIITHSNAHNNTGLEQQRILTEEGVDPGKILIGHLGDTDNIDYIKKIADKGSFIGLDRYGLDLFLPVDKRNETTLRLIKDGYSDKIMISHDYCCTIDIGTAKPEYKPKLAPRWSITLIFEDTIPFLKRNGVNEEVIATIFKENPKKFFS
B2: SsoPox: SsoPox enzyme tested for ecotoxicity; variant not specified (protein, UniProt Q97VT7 1-314, looked up)
Aryldialkylphosphatase: B1 chain with I263W

What was measured:
[1] = tested on: P. aeruginosa PAO1 biofilm formation; type: cell-based
[2] = type: physicochemical; conditions: pH 8
P. aeruginosa PAO1 = conditions: in vivo
lasB transcription = type: cell-based, P. aeruginosa
3-oxo-C12 AHL = type: cell-based, Pseudomonas aeruginosa
[3] = rat, in vivo
[4] = tested on: sea urchins larvae (Paracentrotus lividus); conditions: in vivo

Molecule	[C1/2] of inhibition of biofilm formation [1]	melting temperature [2] [°C]	mean time to death (P. aeruginosa PAO1) [h]	mortality rate (P. aeruginosa PAO1) [%]	half inhibition concentration ([C1/2]) of lasB transcription (lasB transcription)	relative lactonase activity in screening (3-oxo-C12 AHL hydrolysis) (3-oxo-C12 AHL)	acute inflammatory reactions in the respiratory parenchyma [3]	histological analysis of lungs [3]	macroscopic aspect of lungs removed after treatment [3]	spontaneous mortality [3]	tolerance of tracheal instillation [3]	effects on viability and development [4]
B1	approximately 170 μg/mL	87.8±1.2	37 ± 13	20	around 0.5 μg/mL	selected for a potential lactonase activity improvement	no observable acute inflammatory reactions	normal lung parenchyma	no macroscopic signs of injury	no spontaneous mortality was observed	well tolerated	
B2												no effects have been observed
